Source: IntAct's records for PubMed 18093920

B1: Syndecan-1 (Homo sapiens), P18827 (parent)
chain: MRRAALWLWLCALALSLQPALPQIVATNLPPEDQDGSGDDSDNFSGSGAGALQDITLSQQTPSTWKDTQLLTAIPTSPEPTGLEATAASTSTLPAGEGPKEGEAVVLPEVEPGLTAREQEATPRPRETTQLPTTHLASTTTATTAQEPATSHPHRDMQPGHHETSTPAGPSQADLHTPHTEDGGPSATERAAEDGASSQLPAAEGSGEQDFTFETSGENTAVVAVEPDRRNQSPVDQGATGASQGLLDRKEVLGGVIAGGLVGLIFAVCLVGFMLYRMKKKDEGSYSLEEPKQANGGAYQKPTKQEEFYA
B2: Syndecan-2 (Homo sapiens), P34741 (parent)
chain: MRRAWILLTLGLVACVSAESRAELTSDKDMYLDNSSIEEASGVYPIDDDDYASASGSGADEDVESPELTTSRPLPKILLTSAAPKVETTTLNIQNKIPAQTKSPEETDKEKVHLSDSERKMDPAEEDTNVYTEKHSDSLFKRTEVLAAVIAGGVIGFLFAIFLILLLVYRMRKKDEGSYDLGERKPSSAAYQKAPTKEFYA
B3: Syndecan-2 (Homo sapiens), P34741 (parent)
chain: B2 chain
partner: B1 chain
B4: Syndecan-4 (Homo sapiens), P31431 (parent)
chain: MAPARLFALLLFFVGGVAESIRETEVIDPQDLLEGRYFSGALPDDEDVVGPGQESDDFELSGSGDLDDLEDSMIGPEVVHPLVPLDNHIPERAGSGSQVPTEPKKLEENEVIPKRISPVEESEDVSNKVSMSSTVQGSNIFERTEVLAALIVGGIVGILFAVFLILLLMYRMKKKDEGSYDLGKKPIYKKAPTNEFYA
B5: Syndecan-3 (Homo sapiens), O75056 (parent)
chain: MKPGPPHRAGAAHGAGAGAGAAAGPGARGLLLPPLLLLLLAGRAAGAQRWRSENFERPVDLEGSGDDDSFPDDELDDLYSGSGSGYFEQESGIETAMRFSPDVALAVSTTPAVLPTTNIQPVGTPFEELPSERPTLEPATSPLVVTEVPEEPSQRATTVSTTMATTAATSTGDPTVATVPATVATATPSTPAAPPFTATTAVIRTTGVRRLLPLPLTTVATARATTPEAPSPPTTAAVLDTEAPTPRLVSTATSRPRALPRPATTQEPDIPERSTLPLGTTAPGPTEVAQTPTPETFLTTIRDEPEVPVSGGPSGDFELPEEETTQPDTANEVVAVGGAAAKASSPPGTLPKGARPGPGLLDNAIDSGSSAAQLPQKSILERKEVLVAVIVGGVVGALFAAFLVTLLIYRMKKKDEGSYTLEEPKQASVTYQKPDKQEEFYA
partner: B4 chain

Variants of: B1
Conditions: with sdc2_human SDC2, P34741

Row | effect of a mutation on the interaction | Variant
1 | decreasing interaction | MRRAALWLWLCALALSLQPALPQIVATNLPPEDQDGSGDDSDNFSGSGAGALQDITLSQQTPSTWKDTQLLTAIPTSPEPTGLEATAASTSTLPAGEGPKEGEAVVLPEVEPGLTAREQEATPRPRETTQLPTTHLASTTTATTAQEPATSHPHRDMQPGHHETSTPAGPSQADLHTPHTEDGGPSATERAAEDGASSQLPAAEGSGEQDFTFETSGENTAVVAVEPDRRNQSPVDQGATGASQGLLDRKEVLGGVIALGLVGLIFAVCLVGFMLYRMKKKDEGSYSLEEPKQANGGAYQKPTKQEEFYA [G259L]
2 | decreasing interaction | MRRAALWLWLCALALSLQPALPQIVATNLPPEDQDGSGDDSDNFSGSGAGALQDITLSQQTPSTWKDTQLLTAIPTSPEPTGLEATAASTSTLPAGEGPKEGEAVVLPEVEPGLTAREQEATPRPRETTQLPTTHLASTTTATTAQEPATSHPHRDMQPGHHETSTPAGPSQADLHTPHTEDGGPSATERAAEDGASSQLPAAEGSGEQDFTFETSGENTAVVAVEPDRRNQSPVDQGATGASQGLLDRKEVLGGVIAGGLVLLIFAVCLVGFMLYRMKKKDEGSYSLEEPKQANGGAYQKPTKQEEFYA [G263L]

Variants of: B1
Conditions: with sdc3_human SDC3, O75056

Row | effect of a mutation on the interaction | Variant
3 | decreasing interaction | MRRAALWLWLCALALSLQPALPQIVATNLPPEDQDGSGDDSDNFSGSGAGALQDITLSQQTPSTWKDTQLLTAIPTSPEPTGLEATAASTSTLPAGEGPKEGEAVVLPEVEPGLTAREQEATPRPRETTQLPTTHLASTTTATTAQEPATSHPHRDMQPGHHETSTPAGPSQADLHTPHTEDGGPSATERAAEDGASSQLPAAEGSGEQDFTFETSGENTAVVAVEPDRRNQSPVDQGATGASQGLLDRKEVLGGVIALGLVGLIFAVCLVGFMLYRMKKKDEGSYSLEEPKQANGGAYQKPTKQEEFYA [G259L]
4 | decreasing interaction | MRRAALWLWLCALALSLQPALPQIVATNLPPEDQDGSGDDSDNFSGSGAGALQDITLSQQTPSTWKDTQLLTAIPTSPEPTGLEATAASTSTLPAGEGPKEGEAVVLPEVEPGLTAREQEATPRPRETTQLPTTHLASTTTATTAQEPATSHPHRDMQPGHHETSTPAGPSQADLHTPHTEDGGPSATERAAEDGASSQLPAAEGSGEQDFTFETSGENTAVVAVEPDRRNQSPVDQGATGASQGLLDRKEVLGGVIAGGLVLLIFAVCLVGFMLYRMKKKDEGSYSLEEPKQANGGAYQKPTKQEEFYA [G263L]

Variants of: B2
Conditions: with sdc3_human SDC3, O75056

Row | effect of a mutation on the interaction | Variant
5 | decreasing interaction | MRRAWILLTLGLVACVSAESRAELTSDKDMYLDNSSIEEASGVYPIDDDDYASASGSGADEDVESPELTTSRPLPKILLTSAAPKVETTTLNIQNKIPAQTKSPEETDKEKVHLSDSERKMDPAEEDTNVYTEKHSDSLFKRTEVLAAVIAGGVILFLFAIFLILLLVYRMRKKDEGSYDLGERKPSSAAYQKAPTKEFYA [G156L]
6 | decreasing interaction | MRRAWILLTLGLVACVSAESRAELTSDKDMYLDNSSIEEASGVYPIDDDDYASASGSGADEDVESPELTTSRPLPKILLTSAAPKVETTTLNIQNKIPAQTKSPEETDKEKVHLSDSERKMDPAEEDTNVYTEKHSDSLFKRTEVLAAVIALGVIGFLFAIFLILLLVYRMRKKDEGSYDLGERKPSSAAYQKAPTKEFYA [G152L]

Variants of: B3
Conditions: with sdc1_human SDC1, P18827

Row | effect of a mutation on the interaction | Variant
7 | decreasing interaction | MRRAWILLTLGLVACVSAESRAELTSDKDMYLDNSSIEEASGVYPIDDDDYASASGSGADEDVESPELTTSRPLPKILLTSAAPKVETTTLNIQNKIPAQTKSPEETDKEKVHLSDSERKMDPAEEDTNVYTEKHSDSLFKRTEVLAAVIAGGVILFLFAIFLILLLVYRMRKKDEGSYDLGERKPSSAAYQKAPTKEFYA [G156L]
8 | decreasing interaction | MRRAWILLTLGLVACVSAESRAELTSDKDMYLDNSSIEEASGVYPIDDDDYASASGSGADEDVESPELTTSRPLPKILLTSAAPKVETTTLNIQNKIPAQTKSPEETDKEKVHLSDSERKMDPAEEDTNVYTEKHSDSLFKRTEVLAAVIALGVIGFLFAIFLILLLVYRMRKKDEGSYDLGERKPSSAAYQKAPTKEFYA [G152L]

Variants of: B4
Conditions: with sdc2_human SDC2, P34741

Row | effect of a mutation on the interaction | Variant
9 | decreasing interaction | MAPARLFALLLFFVGGVAESIRETEVIDPQDLLEGRYFSGALPDDEDVVGPGQESDDFELSGSGDLDDLEDSMIGPEVVHPLVPLDNHIPERAGSGSQVPTEPKKLEENEVIPKRISPVEESEDVSNKVSMSSTVQGSNIFERTEVLAALIVLGIVGILFAVFLILLLMYRMKKKDEGSYDLGKKPIYKKAPTNEFYA [G153L]

Variants of: B4
Conditions: with sdc3_human SDC3, O75056

Row | effect of a mutation on the interaction | Variant
10 | decreasing interaction | MAPARLFALLLFFVGGVAESIRETEVIDPQDLLEGRYFSGALPDDEDVVGPGQESDDFELSGSGDLDDLEDSMIGPEVVHPLVPLDNHIPERAGSGSQVPTEPKKLEENEVIPKRISPVEESEDVSNKVSMSSTVQGSNIFERTEVLAALIVLGIVGILFAVFLILLLMYRMKKKDEGSYDLGKKPIYKKAPTNEFYA [G153L]

Variants of: B5
Conditions: with sdc4_human SDC4, P31431

Row | effect of a mutation on the interaction | Variant
11 | decreasing interaction | MKPGPPHRAGAAHGAGAGAGAAAGPGARGLLLPPLLLLLLAGRAAGAQRWRSENFERPVDLEGSGDDDSFPDDELDDLYSGSGSGYFEQESGIETAMRFSPDVALAVSTTPAVLPTTNIQPVGTPFEELPSERPTLEPATSPLVVTEVPEEPSQRATTVSTTMATTAATSTGDPTVATVPATVATATPSTPAAPPFTATTAVIRTTGVRRLLPLPLTTVATARATTPEAPSPPTTAAVLDTEAPTPRLVSTATSRPRALPRPATTQEPDIPERSTLPLGTTAPGPTEVAQTPTPETFLTTIRDEPEVPVSGGPSGDFELPEEETTQPDTANEVVAVGGAAAKASSPPGTLPKGARPGPGLLDNAIDSGSSAAQLPQKSILERKEVLVAVIVGGVVLALFAAFLVTLLIYRMKKKDEGSYTLEEPKQASVTYQKPDKQEEFYA [G396L]
